{
  "source": "paper PMC5472591",
  "about": "“Mechanical stability of talin rod controls cell migration and substrate sensing” (Scientific Reports, 2017)",
  "proteins": {"B1": {"name": "talin-1 rod R3 subdomain fragment (amino acids 795-911) 4S mutant, His6-tagged (domain or fragment, mouse)", "chain": "SSSGPSASGTGAGRYDQATDTSLTVTENSFSSMGDAGEMVRQARILAQATSDLVNAIKADAEGESDLENSRKLLSAAKILADATAKMVEAAKGAAAHPDSEEQQQRSREAAEGSRMATNAAAQNAIKK", "notes": "11 residue linker between the N-terminal His6-tag and the talin fragment; talin-1, mouse, R3 subdomain, residues 795-911, with all four destabilizing point mutations; not shown: His6, N-terminal, kept"}},
  "target": "the molecule itself",
  "assay": "SEC-MALS; SEC on Superdex 200 10/300 GL with inline right angle / static light scattering detector; 200 ug protein injected; 50 mM NaH3PO4, 150 mM NaCl pH 7.2; 0.5 ml/min; 20 °C; detector calibrated with the monomeric peak of BSA",
  "data": [
    {"protein": "B1", "values": [
      {"measurement": "stoichiometry N", "value": 2}
    ]}
  ]
}
